Experiments:
GxtA = assay: crystal structure; GxtA crystallised anaerobically, hanging drop, 0.3 M MgCl2, 0.1 M Bis-Tris pH 5.5, 25% PEG3350, 15% glycerol, 20 °C; without and with 20 mM ddSTX; three molecules in the asymmetric unit
SxtT = assay: crystal structure; SxtT crystallised anaerobically, hanging drop, 2.0 M (NH4)2SO4, 0.1 M Bis-Tris pH 6.5, 10% glycerol, 20 °C; without and with 20 mM ddSTX; three molecules in the asymmetric unit

| Substance | stoichiometry N (GxtA) | stoichiometry N (SxtT) |
| --- | --- | --- |
| GxtA (enzyme) | 3 | – |
| SxtT (enzyme) | – | 3 |
